Measured values taken from patent US8541552.

Target: T1, LTα1β2 (human, UniProt P01374)
T1 chain 1: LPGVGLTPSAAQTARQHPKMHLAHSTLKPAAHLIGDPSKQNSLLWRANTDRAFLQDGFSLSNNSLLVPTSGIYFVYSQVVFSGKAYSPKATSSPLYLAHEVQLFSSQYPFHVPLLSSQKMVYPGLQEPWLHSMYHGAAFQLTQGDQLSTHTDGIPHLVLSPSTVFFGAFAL
T1 chain 2: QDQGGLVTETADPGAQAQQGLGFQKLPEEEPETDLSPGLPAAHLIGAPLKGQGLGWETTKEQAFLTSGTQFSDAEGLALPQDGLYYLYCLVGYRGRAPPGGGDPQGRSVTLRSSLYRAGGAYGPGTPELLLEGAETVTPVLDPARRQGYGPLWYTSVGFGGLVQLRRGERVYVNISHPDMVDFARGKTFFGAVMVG
Test: ELISA

binding result: no binding
B1: TNFRII.Fc (protein)
chain: LPAQVAFTPYAPEPGSTCRLREYYDQTAQMCCSKCSPGQHAKVFCTKTSDTVCDSCEDSTYTQLWNWVPECLSCGSRCSSDQVETQACTREQNRICTCRPGWYCALSKQEGCRLCAPLRKCRPGFGVARPGTETSDVVCKPCAPGTFSNTTSSTDICRPHQICNVVAIPGNASMDAVCTSTSPTRSMAPGAVHLPQPVSTRSQHTQPTPEPSTAPSTSFLLPMGPSPPAEGSTGD
